Laboratory results published in patent US20260191907A1 (INSTITUT CURIE, published 2026).
One block for each binder: values may come before it.

Columns and labels:
[1] = target: T1, FGFR2 expressed on Rh4-FR4ko cells (UniProt P21802 22-821, limits assumed); assay: flow cytometry on Rh4-FR4ko cells, which express FGFR1 and FGFR2
T1 construct: whole, on cells; also called FGFR2 on Rh4 cells
Description: The cells were incubated for 1 h with nanobodies at 10 μM (A8, B1, B5, F8, mCh) followed by stimulation of FGFR4 with 50 nM FGF19 for 10 min. Control cells (C) were either not stimulated or stimulated with FGF19 in absence of the nanobodies. The cell lysates were analysed by western blot with anti phospho ERK1/2 antibody. Total Erk1/2 levels are shown as loading control.
(§1) Binding validation of selected phages, recombinant nanobodies and decorated liposomes was performed on Rh4-FR4 wt and Rh4-FR4ko cells. Specificity of selected phage clones binding to FGFR4 was determined by flow cytometry in 96-well plates (Becton Dickinson). Cell surface staining of Rh4-FR4 wt or Rh4-FR4ko cells was performed on ice in PBS supplemented with 1% FBS. 80 μL phages+20 μL PBS/1% milk were incubated on 1×10⁵ cells for 1 h on ice. […] Samples were analyzed after two washes by flow cytometry on a MACSQuant® cytometer (Miltenyi) and results were analyzed with FlowJo™ software (BD Biosciences, France). Phages displaying anti-mCherry nanobodies were used as negative control²⁴ and as positive control we used an anti-FGFR4 antibody (BT53, kindly provided by J. Khan lab, NCI, Bethesda, MD). For binding test of recombinant nanobodies, cells were detached with Accutase® (Stemcell Technologies) and washed with PBS. All following steps were performed on ice: 4×10⁵ cells were incubated with nanobody concentrations of 30 μg/ml for 1 h, washed once with PBS and incubated for an additional 30 min with anti His-tag FITC labeled antibody (LS-C57341, LSBioscience, diluted 1:10). The cells were washed once more with PBS and analyzed. Targeting liposomes were added at 0.5 mM final lipid concentration to cells in 96-well plates and incubated for 2 h at 37° C. and 5% CO₂. The cells were washed twice with PBS and detached with Accutase®.
Validation of the binding of recombinant nanobodies to cell-surface expressed FGFR4 was performed with Rh4-FR4 wt and Rh4-FR4ko cells by flow cytometry.

[2] = target: T2, FGFR4 expressed on the surface of RMS cells (Rh4-FR4 wt, Rh30) (human, UniProt P22455 22-802); assay: flow cytometry, recombinant nanobody at 30 µg/ml on Rh4-FR4 wt cells, anti-6xHis-FITC detection
T2 construct: Endogenous FGFR4 of the rhabdomyosarcoma cell lines; The whole entry includes the signal peptide; also called cell-surface FGFR4; Rh4-FR4 wt cells
Description: Control cells (C) were either not stimulated or stimulated with FGF19 in absence of the nanobodies. The cell lysates were analysed by western blot with anti phospho ERK1/2 antibody. Total Erk1/2 levels are shown as loading control.
as §1
Validation of the binding of recombinant nanobodies to cell-surface expressed FGFR4 was performed with Rh4-FR4 wt and Rh4-FR4ko cells by flow cytometry. A FITC-labeled anti-6×His-tag antibody was used to detect surface-bound nanobodies.

[3] = target: T3, Recombinant FGFR4 (G&P Biosciences) (human, UniProt P22455 22-369); assay: SPR (BIAcore T200), single cycle kinetics, FGFR4 amine-immobilised, nanobody as analyte, heterogeneous ligand model, component 2 (koff2); heterogeneous ligand model, component 2 (koff2)
T3 construct: Bought protein; the SPR method says only 'Recombinant; also called rFGFR4; extracellular FGFR4
T3 sequence: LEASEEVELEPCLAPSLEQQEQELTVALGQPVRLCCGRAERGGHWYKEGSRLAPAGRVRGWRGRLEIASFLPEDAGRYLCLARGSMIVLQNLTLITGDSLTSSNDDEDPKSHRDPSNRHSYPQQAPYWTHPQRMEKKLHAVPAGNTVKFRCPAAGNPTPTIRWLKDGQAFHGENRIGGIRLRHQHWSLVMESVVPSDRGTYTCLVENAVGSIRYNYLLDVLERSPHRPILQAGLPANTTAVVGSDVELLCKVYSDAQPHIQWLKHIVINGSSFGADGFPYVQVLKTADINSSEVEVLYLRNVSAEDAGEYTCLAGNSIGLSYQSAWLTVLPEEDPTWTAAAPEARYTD
Description: FIG. 3: Affinity determination of nanobodies to recombinant protein via surface plasmon resonance spectroscopy. Single cycle kinetics analysis was performed on immobilized FGFR4 through covalent amine binding on the dextran based sensor chip. The analytes A8, B1, B5, F8 and mCh were injected in 5 different concentrations followed by a dissociation phase. A final dissociation step was added after the last injection step to determine Koff rates for the KD calculations. The black curves represent the measured data and red curves show the fit analysis (heterogeneous ligand model) performed with the BIAevaluation software.
Single cycle kinetics analysis was performed with the BIAcore® T200 instrument (GE Healthcare) on CMD200M sensor chips (XanTec bioanalytics GmbH) activated with a mixture of 300 mM NHS (N-hydroxysuccinimide) and 50 mM EDC (N-ethyl-N′-(dimethylaminopropyl) carbodiimide). Recombinant FGFR1, FGFR2, FGFR3 and FGFR4 (G&P Biosciences) were immobilized on the activated biosensors (800 to 12′000 RU; 1 RU=1 pg/mm²) followed by a blocking step with 1M ethanolamine. […] Koff-rates were determined from a final dissociation step after the last injection. […] Binding parameters were determined with the heterogeneous ligand model fit of the BIAevaluation software. The black curves represent the measured data and red curves show the performed fit analysis. […]

T1 sequence (P21802 22-821 limits assumed): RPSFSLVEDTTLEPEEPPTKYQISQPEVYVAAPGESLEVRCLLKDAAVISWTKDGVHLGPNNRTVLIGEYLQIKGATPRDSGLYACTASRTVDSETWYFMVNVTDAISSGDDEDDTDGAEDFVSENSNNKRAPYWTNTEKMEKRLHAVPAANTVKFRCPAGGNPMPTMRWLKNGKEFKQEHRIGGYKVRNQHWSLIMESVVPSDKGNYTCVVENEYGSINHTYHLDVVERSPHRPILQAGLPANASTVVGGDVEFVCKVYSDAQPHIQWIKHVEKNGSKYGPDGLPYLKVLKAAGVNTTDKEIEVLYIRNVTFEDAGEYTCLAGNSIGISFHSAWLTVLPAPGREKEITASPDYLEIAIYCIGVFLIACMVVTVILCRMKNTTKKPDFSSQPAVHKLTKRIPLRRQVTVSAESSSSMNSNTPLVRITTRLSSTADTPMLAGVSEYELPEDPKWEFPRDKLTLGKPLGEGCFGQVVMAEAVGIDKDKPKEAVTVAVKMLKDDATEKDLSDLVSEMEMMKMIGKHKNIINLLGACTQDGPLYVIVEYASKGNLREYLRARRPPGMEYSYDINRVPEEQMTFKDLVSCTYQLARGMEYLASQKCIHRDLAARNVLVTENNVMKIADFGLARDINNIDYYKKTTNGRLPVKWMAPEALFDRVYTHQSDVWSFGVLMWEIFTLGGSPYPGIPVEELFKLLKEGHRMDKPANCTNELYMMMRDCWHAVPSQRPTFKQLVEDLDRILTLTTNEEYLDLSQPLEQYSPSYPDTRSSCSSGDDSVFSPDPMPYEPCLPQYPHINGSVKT

B2: B5 nanobody (anti-FGFR4 sdAb, NaLi-H1 library) (VHH)
VHH: EVQLQASGGGFVQPGGSLRLSCAASGRTSWLTTMGWFRQAPGKEREFVSAISSFSSKQGYYADSVKGRFTISRDNSKNTVYLQMNSLRAEDTATYYCAYASYPRHQGNGRWKDFVEYWGQGTQVTVSS
notes: Recombinant nanobody of about 17 kDa; also called B5 sdAb; not shown: C-terminal Myc/6xHis-tag and an additional cysteine
- median fluorescence intensity (MFI) [2]: ~400 MFI
- koff [3]: 3.75e-08 s⁻¹

B3: A8 nanobody (anti-FGFR4 sdAb, NaLi-H1 library) (VHH)
VHH: EVQLQASGGGFVQPGGSLRLSCAASGRTYSRDTMGWFRQAPGKEREFVSAISSRHSHTTYYADSVKGRFTISRDNSKNTVYLQMNSLRAEDTATYYCAEWDVFDMHYALPPMWYWGQGTQVTVSS
notes: also called A8 sdAb; not shown: C-terminal Myc/6xHis-tag and an additional cysteine
- median fluorescence intensity (MFI) [2]: ~400 MFI

More lines, now with the values ahead:

- binding result [1]: no binding (tested: 30 µg/ml)
- median fluorescence intensity (MFI) [2]: ~400 MFI
B1: F8 nanobody (anti-FGFR4 sdAb, Gimli library) (VHH)
VHH: EVQLVESGGGLVQPGGSLRLSCAASGTGYALDDMGWVRQAPGKGLEWVSAISDDESMADYYADSVKGRFTISRDNSKNTVYLQMNSLRAEDTAVYYCASYKEYKYQSGHHYFAYRGQGTLVTVSS
notes: Recombinant nanobody of about 17 kDa; also called F8 sdAb; not shown: C-terminal Myc/6xHis-tag and an additional cysteine

- binding result [1]: no binding (tested: 30 µg/ml)
- median fluorescence intensity (MFI) [2]: ~400 MFI
B4: B1 nanobody (anti-FGFR4 sdAb, NaLi-H1 library) (VHH)
VHH: EVQLQASGGGFVQPGGSLRLSCAASGYTSRSSAMGWFRQAPGKEREFVSAISDLTGYPYYYADSVKGRFTISRDNSKNTVYLQMNSLRAEDTATYYCAAYQDDKWTYGSQHGKYWGQGTQVTVSS
notes: also called B1 sdAb; not shown: C-terminal Myc/6xHis-tag and an additional cysteine
